Laboratory results from patent publication US20240261374A1, “PHARMACEUTICAL COMPOSITION AND KIT COMPRISING AN IMMUNOMODULATORY SUBSTANCE FOR TREATING DISEASES” (ellennbe GmbH, priority 2021, published 2024).

B1: Cimzia®: biologic, certolizumab pegol (antibody, chains of the INN, looked up, V domains shown)
VH: EVQLVESGGGLVQPGGSLRLSCAASGYVFTDYGMNWVRQAPGKGLEWMGWINTYIGEPIYADSVKGRFTFSLDTSKSTAYLQMNSLRAEDTAVYYCARGYRSYAMDYWGQGTLVTVSS
VL: DIQMTQSPSSLSASVGDRVTITCKASQNVGTNVAWYQQKPGKAPKALIYSASFLYSGVPYRFSGSGSGTDFTLTISSLQPEDFATYYCQQYNIYPLTFGQGTKVEIK
modifications: Fab' PEG (pegol)
B2: IL-4: recombinant human IL-4 produced in Escherichia coli, R&D Systems catalogue number 204-IL/CF; SEQ ID NO: 3 (protein, listed as Homo sapiens)
chain: METGLYLETHRSERGLNLELEPRPRLEPHEPHELELEALACYSALAGLYASNPHEVALHISGLYHISLYSCYSASPILETHRLEGLNGLILEILELYSTHRLEASNSERLETHRGLGLNLYSTHRLECYSTHRGLLETHRVALTHRASPILEPHEALAALASERLYSASNTHRTHRGLLYSGLTHRPHECYSARGALAALATHRVALLEARGGLNPHETYRSERHISHISGLLYSASPTHRARGCYSLEGLYALATHRALAGLNGLNPHEHISARGHISLYSGLNLEILEARGPHELELYSARGLEASPARGASNLETRPGLYLEALAGLYLEASNSERCYSPRVALLYSGLALAASNGLNSERTHRLEGLASNPHELEGLARGLELYSTHRILEMETARGGLLYSTYRSERLYSCYSSERSER
modifications: human IL-4, Interleukin 4
B3: BDNF: recombinant human BDNF produced in Escherichia coli, R&D Systems catalogue number 248-BDB/CF; SEQ ID NO: 4 (protein, listed as Homo sapiens)
chain: HSDPARRGELSVCDSISEWVTAADKKTAVDMSGGTVTVLEKVPVSKGQLKQYFYETKCNPMGYTKEGCRGIDKRHWNSQCRTTQSYVRALTMDSKKRIGWRFIRIDTSCVCTLTIKRGR
modifications: human BDNF, human brain-derived neurotrophic factor

How the values were obtained:
[1] = tested on: ankylosing spondylitis (Bechterew's disease); format: in vivo, human; details: Patient 11; ended more than a year before; lost their effect within half a year
[2] = tested on: patient suffering from multiple sclerosis; experiment: treatment of a patient: SHILD-score, relapses, fatigue; format: in vivo, human; details: for subject's condition in multiple sclerosis: as indicated by the SHILD-score; for SHILD-score: multiple sclerosis
[3] = as can be seen from the examples

Molecule | Effect of earlier treatment with biologics (patient history) [1] | fatigue in case of multiple sclerosis [2, 3] | relapses in case of multiple sclerosis [2, 3] | subject's condition in multiple sclerosis [2] | SHILD-score [2]
B1 | had little effect from the outset |  |  |  | 
B2 |  | reduction | avoiding | stabilization or even improvement | decreasing
B3 |  | very effectively relieving |  | stabilized or even improved | decreasing
